Measured values taken from the supplement of paper PMC10724198.
± gives the standard deviation of the averaged measurements.

Assays:
Saccharomyces cerevisiae [1] = assay: protein stability index of tFT-peptide fusion (C-terminal peptide) (PSI (0-1 scale)); higher = more stable (slower turnover); conditions: genetic background: wild type; temperature: 30 C
Saccharomyces cerevisiae [2] = assay: as above
Protocol: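 MPS profiling in S. cerevisiae of the tFT-X12 degron library: putative degron peptides plus stable controls, 12 aa, fused to the C-terminus of a sfGFP-mCherry timer. Cells are FACS-sorted into 8 mCherry/sfGFP bins and deep-sequenced. PSI runs from 0 (unstable) to 1 (stable). Backgrounds are wild type, das1Δ and doa10Δ at 30 °C, and wild type, das1Δ, cdc34-1 and cdc53-1 at 37 °C; 2-3 technical replicates each.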

[3] = genetic background: cdc34-1, temperature: 37 C
[4] = genetic background: cdc53-1, temperature: 37 C
[5] = genetic background: das1 deletion, temperature: 30 C
[6] = genetic background: das1 deletion, temperature: 37 C
[7] = genetic background: doa10 deletion, temperature: 30 C
[8] = genetic background: wild type, temperature: 30 C
[9] = genetic background: wild type, temperature: 37 C
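Note: PSI is a weighted mean of sequencing reads over stability bins, variants kept only with over 10 reads, mCherry proximal and sfGFP distal, peptide attached via GGGS linker.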

Sequence	protein stability index (Saccharomyces cerevisiae [1])	protein stability index (Saccharomyces cerevisiae [2]; [3])	protein stability index (Saccharomyces cerevisiae [2]; [4])	protein stability index (Saccharomyces cerevisiae [2]; [5])	protein stability index (Saccharomyces cerevisiae [2]; [6])	protein stability index (Saccharomyces cerevisiae [2]; [7])	protein stability index (Saccharomyces cerevisiae [2]; [8])	protein stability index (Saccharomyces cerevisiae [2]; [9])
ILVFHFWPFLVR	0.426 ± 0.04	0.411 ± 0.046	0.435 ± 0.015	0.351 ± 0.018	0.523 ± 0.018	0.418 ± 0.027	0.35 ± 0.017	0.503 ± 0.017
IPGGRPLLVEVR	0.426 ± 0.035	0.339 ± 0.02	0.384 ± 0.018	0.254 ± 0.044	0.518 ± 0.074	0.216 ± 0.0041	0.264 ± 0.033	0.439 ± 0.015
IRHALHFRVVAV	0.48 ± 0.0076	0.505 ± 0.035	0.545 ± 0.016	0.432 ± 0.015	0.568 ± 0.0082	0.3943 ± 0.0036	0.419 ± 0.013	0.5286 ± 0.0022
IRWCLVSVFYVV	0.192 ± 0.038	0.214 ± 0.028	0.364 ± 0.033	0.245 ± 0.033	0.444 ± 0.01	0.0753 ± 0.012	0.0978 ± 0.02	0.13554 ± 0.00011
ISAVLFFLYLSF	0.308 ± 0.025	0.163 ± 0.008	0.108 ± 0.019	0.24 ± 0.018	0.326 ± 0.0042	0.459 ± 0.035	0.246 ± 0.017	0.272 ± 0.009
IVVSSRFLGFFC	0.2 ± 0.0025	0.53 ± 0.073	0.701 ± 0.07	0.62 ± 0.032	0.742 ± 0.0077	0.0947 ± 0.012	0.102 ± 0.012	0.18 ± 0.0083
IWRGGSAVPMIC	0.267 ± 0.058	0.627 ± 0.075	0.686 ± 0.022	0.572 ± 0.025	0.721 ± 0.013	0.167 ± 0.0098	0.195 ± 0.023	0.351 ± 0.02
IYTLIINKSKAQ	0.429 ± 0.041	0.686 ± 0.024	0.685 ± 0.011	0.626 ± 0.046	0.696 ± 0.072	0.282 ± 0.024	0.362 ± 0.11	0.524 ± 0.017
KDIFQIYTLYVF	0.39 ± 0.034	0.407 ± 0.011	0.4611 ± 0.0014	0.329 ± 0.035	0.502 ± 0.023	0.277 ± 0.0099	0.3 ± 0.022	0.467 ± 0.012
KFWVVLIEIKYH	0.172 ± 0.0091	0.0696 ± 0.0057	0.132 ± 0.03	0.159 ± 0.036	0.35 ± 0.092	0.0681 ± 0.015	0.0691 ± 0.036	0.1043 ± 0.00085
KGSKGELGVHVG	0.671 ± 0.34	0.686 ± 0.03	0.712 ± 0.013	0.63 ± 0.016	0.728 ± 0.0034	0.628 ± 0.023	0.634 ± 0.021	0.6889 ± 0.0015
KIILMCYTLITL	0.264 ± 0.015	0.255 ± 0.033	0.347 ± 0.041	0.228 ± 0.039	0.43 ± 0.018	0.2009 ± 0.0016	0.225 ± 0.017	0.413 ± 0.04
KIKQIKINNKIN	0.157 ± 0.0073	0.43 ± 0.0033	0.654 ± 0.13	0.703 ± 0.026	0.758 ± 0.043	0.0896 ± 0.034	0.092 ± 0.032	0.145 ± 0.04
KKIKKYTRKLKI	0.455 ± 0.048	0.707 ± 0.0088	0.765 ± 0.014	0.673 ± 0.05	0.719 ± 0.053	0.323 ± 0.014	0.383 ± 0.02	0.63 ± 0.0069
KKKKRVKIQKKN	0.404 ± 0.03	0.628 ± 0.059	0.707 ± 0.052	0.683 ± 0.041	0.689 ± 0.041	0.259 ± 0.04	0.244 ± 0.061	0.446 ± 0.009
KKNLTHSIRVQA	0.505 ± 0.025	0.62 ± 0.028	0.717 ± 0.0094	0.567 ± 0.033	0.696 ± 0.011	0.352 ± 0.017	0.377 ± 0.021	0.585 ± 0.015
KMKGLINKRKES	0.219 ± 0.0027	0.533 ± 0.05	0.657 ± 0.01	0.655 ± 0.037	0.68 ± 0.015	0.146 ± 0.0029	0.12 ± 0.05	0.233 ± 0.027
KNVFLIRGRKNC	0.356 ± 0.098	0.627 ± 0.054	0.689 ± 0.0093	0.638 ± 0.029	0.721 ± 0.018	0.154 ± 0.021	0.193 ± 0.014	0.41 ± 0.017
KSRLFCFVYFLL	0.167 ± 0.013	0.333 ± 0.011	0.413 ± 0.013	0.311 ± 0.032	0.501 ± 0.007	0.137 ± 0.0024	0.141 ± 0.02	0.17 ± 0.0063
KTDVYPVSFFTC	0.184 ± 0.028	0.532 ± 0.013	0.738 ± 0.0099	0.645 ± 0.043	0.711 ± 0.055	0.0924 ± 0.019	0.0951 ± 0.026	0.133 ± 0.013

Sequence	protein stability index (Saccharomyces cerevisiae [1])	protein stability index (Saccharomyces cerevisiae [2]; [3])	protein stability index (Saccharomyces cerevisiae [2]; [4])	protein stability index (Saccharomyces cerevisiae [2]; [5])	protein stability index (Saccharomyces cerevisiae [2]; [6])	protein stability index (Saccharomyces cerevisiae [2]; [7])	protein stability index (Saccharomyces cerevisiae [2]; [8])	protein stability index (Saccharomyces cerevisiae [2]; [9])
KVLLYWRHAQRQ	0.548 ± 0.11	0.652 ± 0.052	0.6916 ± 0.006	0.654 ± 0.019	0.733 ± 0.01	0.387 ± 0.0069	0.44 ± 0.0086	0.611 ± 0.013
KYKLYGIMIIEG	0.329 ± 0.078	0.39 ± 0.066	0.464 ± 0.016	0.283 ± 0.039	0.472 ± 0.026	0.258 ± 0.012	0.262 ± 0.013	0.462 ± 0.04
LAGLVRFWGCVG	0.341 ± 0.0037	0.622 ± 0.022	0.7111 ± 0.0023	0.656 ± 0.015	0.748 ± 0.019	0.122 ± 0.019	0.141 ± 0.03	0.236 ± 0.0026
LASSCYRHLLVV	0.137 ± 0.002	0.242 ± 0.0047	0.323 ± 0.0065	0.289 ± 0.029	0.4343 ± 0.0036	0.0628 ± 0.016	0.0775 ± 0.017	0.078 ± 0.044
LCCTLFFCYSYH	0.424 ± 0.013	0.569 ± 0.032	0.547 ± 0.064	0.418 ± 0.017	0.554 ± 0.038	0.374 ± 0.0053	0.388 ± 0.019	0.617 ± 0.098
LCSCMWISAIAI	0.445 ± 0.0055	0.5594 ± 0.0027	0.574 ± 0.006	0.435 ± 0.024	0.582 ± 0.014	0.41 ± 0.036	0.435 ± 0.027	0.533 ± 0.039
LCSLPIVCCFFL	0.489 ± 0.029	0.513 ± 0.015	0.552 ± 0.016	0.434 ± 0.031	0.5703 ± 0.0027	0.424 ± 0.016	0.427 ± 0.022	0.534 ± 0.016
LCVGFISFCFCL	0.47934 ± 0.00045	0.48 ± 0.032	0.4954 ± 0.0039	0.451 ± 0.0075	0.53 ± 0.015	0.434 ± 0.01	0.435 ± 0.014	0.512 ± 0.017
LCYFFFISLFLG	0.328 ± 0.0056	0.628 ± 0.032	0.572 ± 0.014	0.465 ± 0.021	0.55 ± 0.0089	0.2248 ± 0.0011	0.26 ± 0.023	0.403 ± 0.0052
LFGFILLGVSCC	0.211 ± 0.029	0.0506 ± 0.0034	0.0719 ± 0.0073	0.164 ± 0.029	0.22 ± 0.0022	0.156 ± 0.0021	0.168 ± 0.024	0.193 ± 0.015
LFLIFFSFLFLC	0.166 ± 0.028	0.135 ± 0.041	0.0847 ± 0.014	0.206 ± 0.024	0.26132 ± 1.1e-05	0.211 ± 0.0073	0.114 ± 0.04	0.141 ± 0.02
LFLIYCFAFSIG	0.367 ± 0.049	0.258 ± 0.083	0.328 ± 0.032	0.22 ± 0.034	0.4171 ± 0.00091	0.194 ± 0.02	0.239 ± 0.021	0.366 ± 0.014
LFNRCCTILVVW	0.299 ± 0.016	0.189 ± 0.025	0.22 ± 0.026	0.198 ± 0.02	0.343 ± 0.01	0.181 ± 0.0051	0.2 ± 0.029	0.316 ± 0.021
LFSVFSLVLFIF	0.427 ± 0.091	0.338 ± 0.0079	0.413 ± 0.011	0.34 ± 0.029	0.501 ± 0.0086	0.316 ± 0.017	0.272 ± 0.023	0.454 ± 0.0073
LFVSLSFVVFLP	0.34 ± 0.077	0.276 ± 0.0041	0.381 ± 0.014	0.26 ± 0.037	0.421 ± 0.013	0.261 ± 0.013	0.261 ± 0.025	0.391 ± 0.0072
LFVVFVLLTFFV	0.279 ± 0.089	0.231 ± 0.039	0.253 ± 0.0056	0.243 ± 0.032	0.337 ± 0.014	0.207 ± 0.02	0.217 ± 0.031	0.29 ± 0.011
LGSCSLIYRKFS	0.204 ± 0.0059	0.597 ± 0.026	0.728 ± 0.017	0.639 ± 0.02	0.703 ± 0.029	0.0934 ± 0.0075	0.0958 ± 0.017	0.172 ± 0.021
LHLSSFVILLEL	0.421 ± 0.021	0.36297 ± 6.8e-05	0.317 ± 0.035	0.353 ± 0.024	0.458 ± 0.018	0.478 ± 0.023	0.346 ± 0.014	0.437 ± 0.021
LIEMVTTRYRLC	0.242 ± 0.044	0.59 ± 0.02	0.7192 ± 0.0016	0.622 ± 0.016	0.717 ± 0.034	0.132 ± 0.0065	0.128 ± 0.02	0.189 ± 0.018
